From the supplement of paper PMC10126150
± gives the standard deviation of the averaged measurements.

Each sequence was assayed on ATP (assay: switch fluorescence ratio, 500 uM ATP over buffer (Cy3 cluster intensity, sum of 5 cycles each) (fold (ratio)); higher = stronger signal-on switching upon ATP binding; sequences stand for … in TCGTCGGCAGCGTCAGATGTGTATAAGAGACAGTTTTTTTTTTTTTTTTTTTTTTTTT…TC). Conditions: aptamer strand: ATP DNA aptamer (quencher-CACCTGGGGGAGTATTGCGGAGGAAGG + anchor), 100 nM annealed; ATP concentration: 500 uM.
Procedure, shortened: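 The fluorescence ratio divides summed target-cycle Cy3 intensity by summed buffer-cycle Cy3 intensity for each cluster and is averaged per switch-domain sequence. Cy3-labelled switching-strand clusters on a modified Illumina MiSeq flow-cell were annealed to 100 nM quencher-labelled ATP aptamer, then imaged in selection buffer and again after 15 min with 500 uM ATP at 22 °C. Five such cycles were run, with NaOH stripping and re-annealing between them, and clusters outside 100-1000 RFU were excluded.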
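Also: ATP exposure 15 min at 22 °C before imaging.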

| Sequence | switch fluorescence ratio |
| --- | --- |
| GGGTGGAGCT | 1 ± 0.019 |
| GGGTGGAGGA | 1.008 ± 0.0038 |
| GGGTGGCACA | 1 ± 0.0046 |
| GGGTGGCAGC | 0.993 ± 0.031 |
| GGGTGGCGAC | 0.988 ± 0.014 |
| GGGTGGCTGG | 0.961 ± 0.049 |
| GGGTGGGAGG | 0.991 ± 0.034 |
| GGGTGGGGCG | 1.04 ± 0.043 |
| GGGTGGGGGG | 1.01 ± 0.037 |
| GGGTGGTTTG | 1.006 ± 0.0097 |
| GGGTGTAACT | 0.9812 ± 0.0074 |
| GGGTGTACTT | 0.991 ± 0.023 |
| GGGTGTATTT | 1.02 ± 0.011 |
| GGGTGTCGGT | 0.984 ± 0.024 |
| GGGTGTGAGT | 1.03 ± 0.018 |
| GGGTGTGCTT | 1.04 ± 0.029 |
| GGGTGTGTGC | 1.03 ± 0.08 |
| GGGTGTTACA | 1.05 ± 0.022 |
| GGGTGTTAGA | 1 ± 0.014 |
| GGGTTAAATT | 1.01 ± 0.038 |
| GGGTTAACTT | 0.999 ± 0.046 |
| GGGTTAATTT | 1 ± 0.028 |
| GGGTTAGCGG | 1.01 ± 0.027 |
| GGGTTAGCTG | 1.01 ± 0.081 |
| GGGTTAGGAG | 0.99 ± 0.029 |
| GGGTTATTAG | 0.986 ± 0.018 |

| Sequence | switch fluorescence ratio |
| --- | --- |
| GGGTTATTGA | 0.995 ± 0.01 |
| GGGTTATTTG | 1.01 ± 0.045 |
| GGGTTCAGGG | 0.977 ± 0.02 |
| GGGTTCATGT | 1.006 ± 0.0027 |
| GGGTTCATTC | 0.998 ± 0.026 |
| GGGTTCCATT | 1.023 ± 0.0075 |
| GGGTTCGTGG | 0.997 ± 0.031 |
| GGGTTCTCAG | 0.995 ± 0.024 |
| GGGTTCTGGA | 1.01 ± 0.019 |
| GGGTTGATCT | 0.993 ± 0.011 |
| GGGTTGGGGC | 0.999 ± 0.049 |
| GGGTTGGTTA | 1 ± 0.04 |
| GGGTTGTCAA | 0.975 ± 0.0099 |
| GGGTTGTTAC | 1.14 ± 0.069 |
| GGGTTGTTAG | 0.996 ± 0.027 |
| GGGTTGTTGG | 0.9963 ± 0.0015 |
| GGGTTGTTTC | 0.973 ± 0.027 |
| GGGTTTACGA | 1.01 ± 0.074 |
| GGGTTTACTG | 1 ± 0.022 |
| GGGTTTAGTG | 0.962 ± 0.014 |
| GGGTTTCGTT | 0.99 ± 0.05 |
| GGGTTTGGGT | 1.01 ± 0.053 |
| GGGTTTTACA | 0.9813 ± 0.0029 |
| GGGTTTTAGC | 1.03 ± 0.076 |
| GGGTTTTCCG | 1.02 ± 0.035 |
| GGGTTTTTCT | 0.99 ± 0.036 |

| Sequence | switch fluorescence ratio |
| --- | --- |
| GGTAAAAAGG | 0.971 ± 0.022 |
| GGTAAAGGAT | 0.991 ± 0.039 |
| GGTAACAGGG | 1.02 ± 0.032 |
| GGTAACGAGG | 0.963 ± 0.039 |
| GGTAACGTTT | 0.985 ± 0.027 |
| GGTAAGATCG | 0.9785 ± 0.0077 |
| GGTAAGGGCC | 1.01 ± 0.034 |
| GGTAATAGGG | 0.996 ± 0.036 |
| GGTAATTAAA | 0.974 ± 0.011 |
| GGTACAGGGA | 1.02 ± 0.015 |
| GGTACGAAAC | 1.68 ± 0.75 |
| GGTACGAACG | 1.29 ± 0.045 |
| GGTACGAGGT | 0.972 ± 0.019 |
| GGTACGTGCA | 0.99 ± 0.024 |
| GGTACGTTGG | 1.02 ± 0.0078 |
| GGTACTAGGC | 1.04 ± 0.08 |
| GGTACTGAGC | 1.03 ± 0.061 |
| GGTACTTGGA | 1.04 ± 0.032 |
| GGTACTTGTT | 1.05 ± 0.052 |
| GGTAGAGCTG | 1 ± 0.018 |
| GGTAGATGCG | 1.03 ± 0.04 |
| GGTAGCAAGT | 1.05 ± 0.034 |
| GGTAGCGAAA | 1.009 ± 0.0051 |
| GGTAGGAAAC | 0.994 ± 0.045 |
| GGTAGGGCGT | 1.01 ± 0.027 |
| GGTAGGGGTT | 1 ± 0.053 |

| Sequence | switch fluorescence ratio |
| --- | --- |
| GGTAGGTGGC | 0.952 ± 0.027 |
| GGTAGGTGGG | 1.01 ± 0.055 |
| GGTAGTACTG | 0.995 ± 0.095 |
| GGTAGTTCCT | 1.02 ± 0.013 |
| GGTAGTTGCC | 1.02 ± 0.034 |
| GGTAGTTGTG | 0.982 ± 0.013 |
| GGTATAGAGA | 0.986 ± 0.051 |
| GGTATCAGGG | 0.999 ± 0.022 |
| GGTATCCGGG | 0.974 ± 0.019 |
| GGTATCTAGA | 1.02 ± 0.0067 |
| GGTATCTTAG | 0.9857 ± 0.0087 |
| GGTATGGTAC | 1.086 ± 0.0055 |
| GGTATGTTAA | 0.98 ± 0.014 |
| GGTATGTTTG | 0.96 ± 0.043 |
| GGTATGTTTT | 0.978 ± 0.037 |
| GGTATTCAGC | 0.957 ± 0.052 |
| GGTATTGCGG | 1.05 ± 0.023 |
| GGTATTGGAC | 0.9947 ± 0.0058 |
| GGTATTGTAG | 0.982 ± 0.025 |
| GGTATTGTGT | 1.02 ± 0.028 |
| GGTATTTTTG | 0.992 ± 0.019 |
| GGTCAGGCGA | 0.989 ± 0.016 |
| GGTCAGTGTC | 0.981 ± 0.052 |
| GGTCATGGGG | 0.978 ± 0.023 |
| GGTCCAAGAT | 0.9998 ± 0.0066 |
| GGTCCAGTGT | 1.06 ± 0.016 |

| Sequence | switch fluorescence ratio |
| --- | --- |
| GGTCCTGTTT | 0.994 ± 0.02 |
| GGTCGAGGGG | 0.997 ± 0.021 |
| GGTCGATGAT | 0.98739 ± 0.00068 |
| GGTCGCCTCA | 0.9687 ± 0.0086 |
| GGTCGGGC | 0.969 ± 0.03 |
| GGTCGGGGCG | 1.02 ± 0.071 |
| GGTCGGGTTC | 0.985 ± 0.015 |
| GGTCGGGTTG | 0.979 ± 0.011 |
| GGTCGTAGGG | 1.01 ± 0.016 |
| GGTCTAACAT | 0.998 ± 0.015 |
| GGTCTACTTG | 0.984 ± 0.057 |
| GGTCTAGAGA | 0.98 ± 0.033 |
| GGTCTATCCG | 0.983 ± 0.046 |
| GGTCTCAAGA | 0.993 ± 0.023 |
| GGTCTCTTAC | 1.02 ± 0.037 |
| GGTCTGGGGA | 1.024 ± 0.0073 |
| GGTCTTGGCA | 0.985 ± 0.052 |
| GGTCTTTTGT | 0.998 ± 0.042 |
| GGTGAACTTT | 0.964 ± 0.015 |
| GGTGAAGGCA | 1 ± 0.023 |
| GGTGAAGGGG | 1.15 ± 0.27 |
| GGTGAAGTGC | 0.992 ± 0.068 |
| GGTGACTTGG | 1.01 ± 0.055 |
| GGTGAGCCTT | 0.987 ± 0.012 |
| GGTGAGGGAC | 1.02 ± 0.011 |
| GGTGATGCGC | 0.978 ± 0.034 |

| Sequence | switch fluorescence ratio |
| --- | --- |
| GGTGATGGGG | 0.985 ± 0.038 |
| GGTGATGTGT | 1.004 ± 0.0075 |
| GGTGATTGTG | 0.9826 ± 0.004 |
| GGTGATTTAA | 1.01 ± 0.012 |
| GGTGATTTAT | 1.01 ± 0.029 |
| GGTGCATAGC | 0.9714 ± 0.0074 |
| GGTGCATGAC | 1.39 ± 0.0037 |
| GGTGCGGGGT | 0.983 ± 0.016 |
| GGTGCTAGCG | 1.0247 ± 0.00089 |
| GGTGCTTAGG | 1.02 ± 0.024 |
| GGTGCTTGGT | 0.989 ± 0.018 |
| GGTGGAAAGG | 0.982 ± 0.043 |
| GGTGGAAGAG | 0.982 ± 0.036 |
| GGTGGAAGCT | 1.01 ± 0.025 |
| GGTGGAAGGG | 0.975 ± 0.03 |
| GGTGGAATCA | 0.9816 ± 0.0017 |
| GGTGGACAAC | 0.997 ± 0.013 |
| GGTGGAGCCC | 0.962 ± 0.04 |
| GGTGGAGGAA | 1.027 ± 0.0053 |
| GGTGGAGGAG | 0.979 ± 0.023 |
| GGTGGAGGGT | 0.9938 ± 0.0025 |
| GGTGGATGCC | 1.02 ± 0.04 |
| GGTGGATTGG | 1.07 ± 0.1 |
